Reference: patent US20110091562A1 (GEORGIA TECH RESEARCH, published 2011)

B1: Scrambled (SCR) peptide (DYPSMAMYSPSVC) conjugated to core/shell pNIPMAm nanogels (peptide)
peptide: DYPSMAMYSPSVC
modifications: C-terminal cysteine coupled by maleimide (EMCA) to primary amines of the nanogel shell
notes: Control peptide with the same amino acid composition as YSA, tethered to the same nanogels; also called SCR-pNIPMAm nanogels; SCR-labeled nanogels
B2: YSA peptide (YSAYPDSVPMMSC) conjugated to core/shell pNIPMAm nanogels (peptide)
peptide: YSAYPDSVPMMSC
modifications: C-terminal cysteine coupled by maleimide (epsilon-maleimidocaproic acid, EMCA) to primary amines of the nanogel shell
notes: The peptide that was made and conjugated carries the C-terminal Cys; also called YSA-conjugated nanogels; YSA-pNIPMAm nanogels

Legend:
[1] = biological target: T1, erythropoietin-producing hepatocellular (Eph) A2 receptor (UniProt P29317 24-976, limits assumed); test: flow cytometry on Hey cells after 4 h incubation with fluorescent nanogels
T1 construct: whole, on cells; Endogenous receptor on ovarian cancer cell lines
T1 sequence (P29317 24-976 limits assumed): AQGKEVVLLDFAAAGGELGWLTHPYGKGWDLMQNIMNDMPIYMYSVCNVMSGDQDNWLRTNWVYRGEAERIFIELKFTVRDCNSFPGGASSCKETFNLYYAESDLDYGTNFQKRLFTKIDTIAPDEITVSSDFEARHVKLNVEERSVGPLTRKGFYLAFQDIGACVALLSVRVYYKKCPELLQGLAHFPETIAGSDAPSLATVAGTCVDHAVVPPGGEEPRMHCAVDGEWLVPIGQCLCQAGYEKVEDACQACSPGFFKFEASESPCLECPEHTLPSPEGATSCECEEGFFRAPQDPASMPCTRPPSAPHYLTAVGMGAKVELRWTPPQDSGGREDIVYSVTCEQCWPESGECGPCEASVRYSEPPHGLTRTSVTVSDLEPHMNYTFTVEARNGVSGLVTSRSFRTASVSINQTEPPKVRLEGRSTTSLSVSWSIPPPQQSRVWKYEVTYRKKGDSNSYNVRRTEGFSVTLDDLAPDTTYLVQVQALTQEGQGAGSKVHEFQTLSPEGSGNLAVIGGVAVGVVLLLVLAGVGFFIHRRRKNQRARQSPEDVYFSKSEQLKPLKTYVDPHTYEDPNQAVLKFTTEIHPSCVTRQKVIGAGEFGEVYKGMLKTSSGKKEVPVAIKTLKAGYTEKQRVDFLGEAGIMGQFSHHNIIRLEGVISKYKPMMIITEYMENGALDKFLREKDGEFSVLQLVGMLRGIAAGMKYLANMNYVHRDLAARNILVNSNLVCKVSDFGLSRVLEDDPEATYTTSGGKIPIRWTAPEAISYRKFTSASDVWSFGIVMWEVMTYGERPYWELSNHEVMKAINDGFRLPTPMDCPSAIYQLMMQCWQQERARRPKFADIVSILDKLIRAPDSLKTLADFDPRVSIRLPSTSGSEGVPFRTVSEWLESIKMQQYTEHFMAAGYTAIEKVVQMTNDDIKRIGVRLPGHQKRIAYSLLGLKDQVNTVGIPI
Description: (§1) Flow cytometry. Hey cells were plated at 2.5×10⁵ cells/well in a 12-well, cell culture plate. Cells were allowed to adhere overnight in an incubator at 37° C. in a 5% CO₂ atmosphere. Cells were washed, and fresh medium was added containing YSA-pNIPMAm or SCR-pNIPMAm nanogels at a concentration of 0.8 mg/mL and incubated for four hours. Following incubation, the cells were washed with PBS and removed from the plate by Trypsin-EDTA treatment. The cells were washed with PBS and fixed with 2% (v/v) paraformaldehyde. Cells were analyzed using a LSR Flow Cytometer (BD Biosciences). Data analysis was carried out using FlowJo software.

[2] = biological target: T1, erythropoietin-producing hepatocellular …; test: flow cytometry on Hey cells, 0.8 mg/mL fluorescent nanogels, 4 h incubation; reference is SCR-labeled nanogels
Description: as §1

Binder	binding result [1]	fold fluorescence relative to SCR-labeled nanogels [2] [fold]
B1	no binding (tested: 0.8 mg/mL nanogels)	–
B2	–	~10
